Test results published in paper PMC11535027, “Structural basis of substrate recognition and allosteric activation of the proapoptotic mitochondrial HtrA2 protease” (Nature Communications, 2024).
Positions count from the first letter of the chain named. In names and notes the source's numbering stands.

T1: wild-type mature human HtrA2 (human)
T1 construct: made from the S306A construct that the methods name HtrA2^133–458; also called wild-type HtrA2; Omi; source: E. coli BL21 (λDE3), purified (Ni-HisTrap, gel filtration)
T1 chain: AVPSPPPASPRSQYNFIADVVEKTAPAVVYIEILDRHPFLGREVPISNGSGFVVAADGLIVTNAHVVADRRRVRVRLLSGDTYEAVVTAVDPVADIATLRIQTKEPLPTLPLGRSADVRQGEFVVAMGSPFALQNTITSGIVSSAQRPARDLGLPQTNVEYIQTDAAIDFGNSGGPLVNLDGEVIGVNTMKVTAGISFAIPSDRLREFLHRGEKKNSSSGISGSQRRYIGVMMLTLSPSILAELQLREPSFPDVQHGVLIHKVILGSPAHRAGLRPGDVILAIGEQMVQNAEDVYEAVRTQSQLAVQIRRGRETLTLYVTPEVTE

T2: wild-type mature HtrA2 (human, UniProt O43464 134-458)
T2 sequence (looked up): T1 chain

B1: full-length mature human HtrA2^133–458 S306A (enzyme, UniProt O43464 133-458, looked up)
chain: AAVPSPPPASPRSQYNFIADVVEKTAPAVVYIEILDRHPFLGREVPISNGSGFVVAADGLIVTNAHVVADRRRVRVRLLSGDTYEAVVTAVDPVADIATLRIQTKEPLPTLPLGRSADVRQGEFVVAMGSPFALQNTITSGIVSSAQRPARDLGLPQTNVEYIQTDAAIDFGNAGGPLVNLDGEVIGVNTMKVTAGISFAIPSDRLREFLHRGEKKNSSSGISGSQRRYIGVMMLTLSPSILAELQLREPSFPDVQHGVLIHKVILGSPAHRAGLRPGDVILAIGEQMVQNAEDVYEAVRTQSQLAVQIRRGRETLTLYVTPEVTE
notes: HtrA2 (Omi), human, mature form, residues 133-458 of the full-length protein of 458 residues, active site serine replaced (S306A); The purchased construct is named pET21b-HtrA2, and pET21b constructs are said to be carboxy-terminally His6-tagged; The purification text also describes removal of a SUMO-His6 tag; The introduction says that the mature protein lacks the 133 amino-terminal residues, …
B2: full-length mature human HtrA2 without the active site serine (S306A) (enzyme, UniProt O43464 134-458, looked up)
chain: T1 chain with S173A
notes: human HtrA2 (Omi), mature form; the methods name the construct HtrA2^133–458; the SEC-MALS constants are of the trimer to hexamer step; also called HtrA2^S306A; MALVI^proS-HtrA2^S306A; source: E. coli BL21 (λDE3), purified (Ni-HisTrap, gel filtration)
B3: DD-PDZOpt activating peptide (peptide)
peptide: DDGQYYFV
notes: source: synthetic peptide, bought: GenScript
B4: DD-PDZOpt activating peptide (peptide)
peptide: DDGQYYFV
notes: as for B3
B5: isolated HtrA2-PDZ domain (residues 349–458) (domain or fragment, human)
chain: NSSSGISGSQRRYIGVMMLTLSPSILAELQLREPSFPDVQHGVLIHKVILGSPAHRAGLRPGDVILAIGEQMVQNAEDVYEAVRTQSQLAVQIRRGRETLTLYVTPEVTE
notes: human HtrA2 (Omi), PDZ domain, residues 349-458; also called HtrA2^349-458; ALVIT-PDZ; source: E. coli BL21 (λDE3), purified (Ni-HisTrap, SENP1 cleavage, gel filtration); not shown: 6xHis-SUMO, N-terminal, cleaved
B6: isolated HtrA2-PDZ domain (residues 349–458) (domain or fragment, human, UniProt O43464 349-458, looked up)
chain: B5 chain
notes: HtrA2 (Omi), human mitochondrial serine protease, carboxy-terminal PDZ domain, residues 349-458 of the full-length protein of 458 residues; Constructs were either amino-terminally SUMO-His6-tagged (pET28b; tag removed with SENP1) or carboxy-terminally His6-tagged (pET21b); Isotope-labelled for NMR; also called ALVIT-PDZ; source: E. coli BL21 (λDE3), purified (Ni2+-HisTrap, gel filtration)

Legend:
[1] = molecular target: the molecule itself; test: SEC-MALS; HtrA2^S306A at increasing concentrations in HBS pH 7.4 without divalent ions; multimerization KD fitted assuming a fast monomer-dimer equilibrium
[2] = molecular target: the molecule itself; test: SEC-MALS; HtrA2^S306A loaded at 5-7.5 mg/ml, Superdex Increase 200 10/300 GL, HBS pH 7.4, RT (~297 K), with 25 mM CaCl2; trimer to hexamer (fitted with the monomer-dimer equation); KD given as a lower limit
[3] = molecular target: the molecule itself; test: SEC-MALS; HtrA2^S306A loaded at 4-7.5 mg/ml, Superdex Increase 200 10/300 GL, HBS pH 7.4, RT (~297 K), no added metal ions; trimer to hexamer (fitted with the monomer-dimer equation); KD given as a lower limit
[4] = molecular target: T1, wild-type mature human HtrA2; test: fluorescence cleavage assay (cleavage rate of H2Opt against DD-PDZOpt concentration, one-site binding model); apparent; 510 nM wild-type HtrA2 (monomeric concentration), 20 µM H2Opt, DD-PDZOpt varied, 20 mM HEPES pH 7.4, no EDTA, 2 mM MgSO4, 313 K; details: both partners purified
[5] = molecular target: T1, wild-type mature human HtrA2; test: fluorescence cleavage assay (cleavage rate of H2Opt against DD-PDZOpt concentration, one-site binding model); apparent; 510 nM wild-type HtrA2 (monomeric concentration), 20 µM H2Opt, DD-PDZOpt varied, 20 mM HEPES pH 7.4, no EDTA, 2 mM CaCl2, 313 K; details: both partners purified
[6] = molecular target: T1, wild-type mature human HtrA2; test: fluorescence cleavage assay (cleavage rate of H2Opt against DD-PDZOpt concentration, one-site binding model); apparent; 510 nM wild-type HtrA2 (monomeric concentration), 20 µM H2Opt, DD-PDZOpt varied, 20 mM HEPES pH 7.4, 1 mM EDTA, 313 K; no additive; details: both partners purified
[7] = molecular target: B6; test: NMR titration; DD-PDZOpt titrated to HtrA2-PDZ, 2D [15N,1H] and 2D [13C,1H] spectra (ALVIT methyl-labelled PDZ); line-shape analysis with TITAN, two-state ligand binding model; 298 K; details: both partners purified
wild-type mature HtrA2 = molecular target: T2, wild-type mature HtrA2; test: cell-based or functional assay
[8] = molecular target: the molecule itself; test: SEC-MALS; HtrA2-PDZ loaded at 100-800 µM, Superdex Increase 200 10/300 GL, HBS (20 mM HEPES, 150 mM NaCl) pH 7.4, RT (~297 K), with CuCl2; monomer to dimer; KD given as a lower limit
[9] = molecular target: the molecule itself; test: SEC-MALS; HtrA2-PDZ loaded at 100-800 µM, Superdex Increase 200 10/300 GL, HBS (20 mM HEPES, 150 mM NaCl) pH 7.4, RT (~297 K), with CaCl2; monomer to dimer; KD given as a lower limit
[10] = molecular target: the molecule itself; test: SEC-MALS; HtrA2-PDZ loaded at 100-800 µM, Superdex Increase 200 10/300 GL, HBS (20 mM HEPES, 150 mM NaCl) pH 7.4, RT (~297 K), with ZnSO4; monomer to dimer; KD given as a lower limit
[11] = molecular target: the molecule itself; test: SEC-MALS; HtrA2-PDZ loaded at 100-800 µM, Superdex Increase 200 10/300 GL, HBS (20 mM HEPES, 150 mM NaCl) pH 7.4, RT (~297 K), with Mg2+ (+MgCl2 in the figure, MgSO4 in Supplementary Table 1); monomer to dimer; KD given as a lower limit
[12] = molecular target: the molecule itself; test: SEC-MALS; HtrA2-PDZ at a range of concentrations, Superdex Increase 200 10/300 GL, PBS pH 7.4, RT (~297 K); KD fitted assuming a fast monomer-dimer equilibrium; dimer to monomers; lower limit because the concentration range was limited by solubility
[13] = molecular target: the molecule itself; test: SEC-MALS; HtrA2-PDZ in HBS (20 mM HEPES, 150 mM NaCl) pH 7.4 supplemented with Zn2+, compared with the non-supplemented buffer; dimer to monomers
[14] = molecular target: the molecule itself; test: SEC-MALS; HtrA2-PDZ in the presence of the activating peptide DD-PDZOpt; dimer to monomers

Binder: B1
Kd [1]: 500 to 1000 µM

Binder: B2
Kd [2]: ≥ 490 µM
Kd [3]: ≥ 960 µM

Binder: B3
Kd [4]: 11.9 µM
Kd [5]: 1.53 µM
Kd [6]: 27.9 µM

Binder: B4
Kd [7]: 3.18 ± 0.9 µM
apparent K_(D,app) of DD-PDZOpt from the H2Opt cleavage rate, with 2 mM Mg2+, as percent of that in standard assay buffer (wild-type mature HtrA2): ~50%

Binder: B5
Kd [8]: ≥ 4160 µM
Kd [9]: ≥ 9200 µM
Kd [10]: ≥ 250 µM
Kd [11]: ≥ 3520 µM

Binder: B6
Kd [12]: ≥ 13000 µM
fold increase of the propensity to dimerize with Zn2+ against the non-supplemented buffer [13]: ~50 fold
Kd [14]: 10300 ± 2500 µM
